The text below walks through data of publication PMC4439256 (Experimental cell research, 2015).

Assay [1] deals with HDHB helicase domain (aa 394-958) (human, UniProt Q8NG08 394-958). Description: pull-down.
Assay [2] has as its target HDHB N-terminus (aa 1-393) (human, UniProt Q8NG08 1-393). Description: pull-down.
Assay [3] deals with T1, human DNA helicase B (human, UniProt Q8NG08 1-1087). Nature of the assay: pull-down.
The target of assay [4] is T1, human DNA helicase B. Description: co-IP.

T1 sequence (Q8NG08 whole entry): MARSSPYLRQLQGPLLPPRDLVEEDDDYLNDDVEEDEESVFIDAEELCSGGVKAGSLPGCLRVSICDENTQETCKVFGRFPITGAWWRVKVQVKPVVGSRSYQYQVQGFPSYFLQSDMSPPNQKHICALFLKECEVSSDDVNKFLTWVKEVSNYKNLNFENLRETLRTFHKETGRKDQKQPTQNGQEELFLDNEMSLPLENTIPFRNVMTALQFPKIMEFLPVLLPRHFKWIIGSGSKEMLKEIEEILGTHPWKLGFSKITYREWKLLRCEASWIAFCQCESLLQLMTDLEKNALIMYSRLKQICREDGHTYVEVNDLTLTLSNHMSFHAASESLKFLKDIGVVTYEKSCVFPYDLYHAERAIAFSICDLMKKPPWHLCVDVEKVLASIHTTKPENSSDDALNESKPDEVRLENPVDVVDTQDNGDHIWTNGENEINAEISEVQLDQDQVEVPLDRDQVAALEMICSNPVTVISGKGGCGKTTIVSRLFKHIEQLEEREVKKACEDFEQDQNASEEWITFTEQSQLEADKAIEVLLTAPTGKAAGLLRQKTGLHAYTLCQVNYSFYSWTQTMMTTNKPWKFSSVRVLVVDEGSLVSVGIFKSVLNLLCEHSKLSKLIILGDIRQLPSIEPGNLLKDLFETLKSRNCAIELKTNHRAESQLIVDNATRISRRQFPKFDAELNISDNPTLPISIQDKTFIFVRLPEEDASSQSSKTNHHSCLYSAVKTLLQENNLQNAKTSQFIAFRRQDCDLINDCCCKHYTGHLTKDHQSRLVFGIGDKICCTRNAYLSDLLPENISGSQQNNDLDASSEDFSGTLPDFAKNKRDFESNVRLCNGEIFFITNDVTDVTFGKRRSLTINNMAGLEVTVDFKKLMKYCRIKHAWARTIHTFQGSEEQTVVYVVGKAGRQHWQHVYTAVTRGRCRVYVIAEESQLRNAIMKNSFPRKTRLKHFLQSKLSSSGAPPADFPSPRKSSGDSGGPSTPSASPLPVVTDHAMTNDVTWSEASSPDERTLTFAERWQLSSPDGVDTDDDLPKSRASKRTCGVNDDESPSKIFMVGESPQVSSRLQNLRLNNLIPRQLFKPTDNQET
Chain of HDHB helicase domain (aa 394-958) (Q8NG08 394-958): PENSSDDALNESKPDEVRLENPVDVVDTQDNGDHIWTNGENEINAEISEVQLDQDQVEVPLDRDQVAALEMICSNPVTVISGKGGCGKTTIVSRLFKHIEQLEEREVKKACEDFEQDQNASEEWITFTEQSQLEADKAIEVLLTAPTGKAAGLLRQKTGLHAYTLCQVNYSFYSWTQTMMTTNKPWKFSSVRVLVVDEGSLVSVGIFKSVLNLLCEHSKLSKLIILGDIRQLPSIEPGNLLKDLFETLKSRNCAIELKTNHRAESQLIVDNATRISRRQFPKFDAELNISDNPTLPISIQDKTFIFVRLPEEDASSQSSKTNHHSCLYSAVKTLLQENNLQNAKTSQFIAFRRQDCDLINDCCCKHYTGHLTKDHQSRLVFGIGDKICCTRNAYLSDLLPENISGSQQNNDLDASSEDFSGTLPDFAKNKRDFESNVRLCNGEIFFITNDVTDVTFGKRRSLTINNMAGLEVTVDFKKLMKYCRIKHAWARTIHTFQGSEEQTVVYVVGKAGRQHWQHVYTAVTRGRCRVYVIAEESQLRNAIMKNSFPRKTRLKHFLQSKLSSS
Chain of HDHB N-terminus (aa 1-393) (Q8NG08 1-393): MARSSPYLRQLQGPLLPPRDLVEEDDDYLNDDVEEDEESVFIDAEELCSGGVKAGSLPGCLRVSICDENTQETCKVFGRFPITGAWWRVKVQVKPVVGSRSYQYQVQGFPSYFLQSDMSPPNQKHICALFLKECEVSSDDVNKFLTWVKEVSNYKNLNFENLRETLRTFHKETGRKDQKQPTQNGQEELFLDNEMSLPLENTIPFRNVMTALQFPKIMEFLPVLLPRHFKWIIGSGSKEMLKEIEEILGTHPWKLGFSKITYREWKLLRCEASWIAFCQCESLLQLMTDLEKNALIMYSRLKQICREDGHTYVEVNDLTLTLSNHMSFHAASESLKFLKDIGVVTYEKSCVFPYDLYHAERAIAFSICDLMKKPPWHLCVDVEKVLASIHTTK

B1: GST-tagged Cdc45N (1-303) (domain or fragment, human, UniProt O75419 1-303, looked up)
chain: MFVSDFRKEFYEVVQSQRVLLFVASDVDALCACKILQALFQCDHVQYTLVPVSGWQELETAFLEHKEQFHYFILINCGANVDLLDILQPDEDTIFFVCDTHRPVNVVNVYNDTQIKLLIKQDDDLEVPAYEDIFRDEEEDEEHSGNDSDGSEPSEKRTRLEEEIVEQTMRRRQRREWEARRRDILFDYEQYEYHGTSSAMVMFELAWMLSKDLNDMLWWAIVGLTDQWVQDKITQMKYVTDVGVLQRHVSRHNHRNEDEENTLSVDCTRISFEYDLRLVLYQHWSLHDSLCNTSYTAARFKLW
Take B1: the binding result in assay [1], in assay [2] and in assay [3] was “binds” throughout.

B2: His-Cdc45 (natural protein, human, UniProt O75419 1-566, looked up)
chain: MFVSDFRKEFYEVVQSQRVLLFVASDVDALCACKILQALFQCDHVQYTLVPVSGWQELETAFLEHKEQFHYFILINCGANVDLLDILQPDEDTIFFVCDTHRPVNVVNVYNDTQIKLLIKQDDDLEVPAYEDIFRDEEEDEEHSGNDSDGSEPSEKRTRLEEEIVEQTMRRRQRREWEARRRDILFDYEQYEYHGTSSAMVMFELAWMLSKDLNDMLWWAIVGLTDQWVQDKITQMKYVTDVGVLQRHVSRHNHRNEDEENTLSVDCTRISFEYDLRLVLYQHWSLHDSLCNTSYTAARFKLWSVHGQKRLQEFLADMGLPLKQVKQKFQAMDISLKENLREMIEESANKFGMKDMRVQTFSIHFGFKHKFLASDVVFATMSLMESPEKDGSGTDHFIQALDSLSRSNLDKLYHGLELAKKQLRATQQTIASCLCTNLVISQGPFLYCSLMEGTPDVMLFSRPASLSLLSKHLLKSFVCSTKNRRCKLLPLVMAAPLSMEHGTVTVVGIPPETDSSDRKNFFGRAFEKAAESTSSRMLHNHFDLSVIELKAEDRSKFLDALISLLS
For the molecule B2, in assay [4], the binding result was “binds”.
